Patent US6746838

System: anti-ras optimised three-finger peptide (F1 +3 Asn) finger 1 helix position +3 S->N (synthetic)
Experiment: ELISA
Settings: apparent Kd; phage-displayed; equal to wild-type Zif268 DBD; Zn

Work on “GTGGTGGGCGCCGTCGGTGTGGGCAAG (double strand) [EJ (G12V) mutant H-ras site]” yielded a Kd of 3 nM.
